Reference: patent publication US20250090677A1 (MULTITUDE THERAPEUTICS, published 2025)

T1: CDH6 on the cell surface of OVCAR-3 cells (human ovarian cancer cells) (human, UniProt P55285 54-790)
T1 construct: whole, on cells; also called CDH6-positive human ovarian cancer cell line OVCAR-3
T1 sequence (looked up): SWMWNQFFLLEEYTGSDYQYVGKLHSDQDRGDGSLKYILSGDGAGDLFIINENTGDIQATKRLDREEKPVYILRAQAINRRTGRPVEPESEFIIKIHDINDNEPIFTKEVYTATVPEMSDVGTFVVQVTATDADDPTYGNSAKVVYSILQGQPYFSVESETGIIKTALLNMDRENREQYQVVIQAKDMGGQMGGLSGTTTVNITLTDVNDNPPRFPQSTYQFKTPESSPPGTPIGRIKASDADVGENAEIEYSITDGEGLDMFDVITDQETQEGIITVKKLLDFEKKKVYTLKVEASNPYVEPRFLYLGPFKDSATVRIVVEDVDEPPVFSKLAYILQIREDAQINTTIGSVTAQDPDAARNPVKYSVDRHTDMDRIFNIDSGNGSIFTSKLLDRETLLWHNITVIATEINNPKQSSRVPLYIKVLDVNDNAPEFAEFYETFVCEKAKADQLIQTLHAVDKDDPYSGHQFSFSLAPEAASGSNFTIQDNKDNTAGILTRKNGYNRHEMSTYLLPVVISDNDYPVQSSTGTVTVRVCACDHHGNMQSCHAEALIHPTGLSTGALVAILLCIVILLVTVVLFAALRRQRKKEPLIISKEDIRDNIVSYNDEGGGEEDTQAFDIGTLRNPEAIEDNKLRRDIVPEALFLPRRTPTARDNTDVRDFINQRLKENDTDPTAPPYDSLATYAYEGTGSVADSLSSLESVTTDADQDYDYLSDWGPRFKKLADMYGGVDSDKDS


Biological target: T1, CDH6 on the cell surface of OVCAR-3 …
Assay: flow cytometry (FACS) on OVCAR-3 cells, antibody titration, labelled secondary antibody, MFI

EC50 (read off the curve) [nM]	Binder
~4	CL069463-H2L2 (antibody, human IgG1, kappa, Humanized IgG1/kappa) heavy: not shown light: DIQMTQSPSSLSASVGDRVTITCRASENIYYSLAWYQQKPGKAPKLLIYNANSLKDGVPSRFSGSGSGTDYTMTISSMQPEDFATYYCQQAYDVPPTFGGGTKVEIKRTVAAPSVFIFPPSDEQLKSGTASVVCLLNNFYPREAKVQWKVDNALQSGNSQESVTEQDSKDSTYSLSSTLTLSKADYEKHKVYACEVTHQGLSSPVTKSFNRGEC
~3	CL069463-H2L3 (antibody, human IgG1, kappa, Humanized IgG1/kappa) heavy: not shown light: DIQMTQSPSSLSASVGERVTITCRASENIYYSLAWYQQKPGKAPKLLIYNANSLKDGVPSRFSGSGSGTDYTMTISSMQPEDFATYYCQQAYDVPPTFGGGTKVEIKRTVAAPSVFIFPPSDEQLKSGTASVVCLLNNFYPREAKVQWKVDNALQSGNSQESVTEQDSKDSTYSLSSTLTLSKADYEKHKVYACEVTHQGLSSPVTKSFNRGEC
